# In patent publication US20240200091A1, “USE OF PROTOPORPHYRINOGEN OXIDASE” (BEIJING DABEINONG BIOTECHNOLOGY CO., LTD., priority 2021, published 2024):
# B1: PPO10A: nucleotide sequence encoding microbial protoporphyrinogen oxidase PPO10 (SEQ ID NO:10), Arabidopsis thaliana/soybean common codon usage bias (nucleic acid)
# DNA: ATGAAAGCTCTCTTTCTGTACTCGTCTCAAGAAGGACAGACAAGGAAGATTATAGAGAGAATCGCCCAGCAAATGCCGGAGTATGATTGTGATATTCAAGATCTTCATCAAGTAAGCGACATTGCATTAGCTGATTATGACAAGATCCTAATAGGGGCCAGTATCCGATATGGAAGATTGAATGATAAACTATATCAATTTATTCAGAGATATCTTCCCGATCTCCGCTCCAACAAAGCAGCTTTCTTCTGCGTCAATCTTACGGCGAGAAAGGAAGAACAAGGAAAAGACACCCCAGAAGGTTCTGTTTACATCCAGACTTTCTTGAAGAAATCACCATGGCAACCTGAGAGGATTGCAGTGTTTGCTGGTGCTCTTTACTATCCTCGTTACAGATGGTTTGATAAGATGATGATTCGGTTAATAATGACTTTGACCGGCGGTGAAACTGATACATCAAAAGAAGTTGAGTACACAAATTGGAACAAGGTTTCTCAGTTTGCGGAGCAGTTCCGTAACTGGTGA
# modifications: The nucleotide sequence of PPO10A
# B2: PPO13A: nucleotide sequence encoding microbial protoporphyrinogen oxidase PPO13 (SEQ ID NO:13), Arabidopsis thaliana/soybean common codon usage bias (nucleic acid)
# DNA: ATGGCTAAAGCTCTTTTCCTGTACTCATCTAGAGAAGGACAAACAAAGAAGATTCTTCATTACATAGACGAGAAGTTAACTGGGTTTGAGTGTGAACTCGTTGATTTGCACAATGTCGAAACTATTGATTTTTCTCAGTATGATAGAGTCTTAATTGGAGCGTCCATACGATATGGTCATCTCAACAAGAAATTATATCAGTTTATCGACCGTAACCTGAACCAGCTAGAGCAAAGCAAGGTAGCTTTCTTCTGCGTGAATCTCACCGCACGGAAAGAGGATCAAGGAAAAGATACTCCTGAAGGCTCAGCTTACATAAGGAAGTTTCTTATCAAATCGCCTTGGAAACCGACATTGATTGGTGTTTTCGCAGGTGCACTTTACTATCCAAGATATGGGTGGTTTGATAAAACAATGATCAAATTCATCATGAGTATGACTGGTGGAGAAACCGACACGACCAAGGAAGTTGAGTACACAAATTGGGAAAAAGTGGCCTTGTTTGCTGATAAGTTCAAGGAGCTATGA
# modifications: The nucleotide sequence of PPO13A
# B3: PPO11A: nucleotide sequence encoding microbial protoporphyrinogen oxidase PPO11 (SEQ ID NO:11), Arabidopsis thaliana/soybean common codon usage bias (nucleic acid)
# DNA: ATGCAAAAAGCTCTTTTCCTCTACAGTTCAAGAGAAGGACAAACAAAGAAAATACTCAACTACATCAAGGAAGAACTATCAGAGTTTGATTGTGAGCTTGCTGATCTTCATCAGATTGAAGATATTGATTTAGCCTTGTATGATCGAGTATTAATAGGCGCAAGCATCCGGTATGGTCACTTGAACAAAAAGCTTTATCAGTTTATTGAGAAGCATGCTGAGCAACTTGCGCTGGCAAAAGCAGCTTTCTTCTGCGTGAATCTCACTGCAAGGAAAGAGGCTCAAGGAAAAGATACTCCGGAAGGTTCTGTTTACATAAAGACGTTTCTGTCCAAGTCTGCTTGGCAACCAAAGTTGATTGGAGTTTTTGCTGGTGCCCTATACTATCCTCGTTACCATTTCTTTGACAAAGTGATGATTAGATTCATCATGTCTTTAACCGGGGGAGAAACTGACACATCAAAAGAAGTTGAGTATACAAATTGGCAGAAAGTCTCGTTGTTTAGTGACAATTTCAAGAAGATGTGA
# modifications: The nucleotide sequence of PPO11A
# System: Arabidopsis thaliana T1 plants
# Experiment: flumioxazin tolerance of transgenic Arabidopsis thaliana T1 plants (spray, grade of pesticide damage)
# Format: in vivo
# Settings: flumioxazin 60 g ai/ha (1×), 7 DAT, number of plants of 24 per genotype, grades
# In short: (§1)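 Saflufenacil (25, 100 g ai/ha), sulfentrazone (450, 900), flumioxazin (60, 240) and oxyfluorfen (180, 720) or water were sprayed on 18-day-old PPO-transgenic T1 plants, control-vector and wild-type plants, 24 per genotype. Seven days later, damage was graded: 0 as in water controls, 1 <10% injured leaf area, 3 100%.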
Molecule,The grade of pesticide damage/plant: grade 0 [plant],The grade of pesticide damage/plant: grade 1 [plant],The grade of pesticide damage/plant: grade 2 [plant],The grade of pesticide damage/plant: grade 3 [plant]
B1,24,0,0,0
B2,24,0,0,0
B3,24,0,0,0

# Same assay, conditions: flumioxazin 240 g ai/ha (4×), 7 DAT, number of plants of 24 per genotype, grades
Molecule,The grade of pesticide damage/plant: grade 0 [plant],The grade of pesticide damage/plant: grade 1 [plant],The grade of pesticide damage/plant: grade 2 [plant],The grade of pesticide damage/plant: grade 3 [plant]
B1,24,0,0,0
B2,19,5,0,0
B3,20,4,0,0

# System: Arabidopsis thaliana T1 plants
# Experiment: sulfentrazone tolerance of transgenic Arabidopsis thaliana T1 plants (spray, grade of pesticide damage)
# Format: in vivo
# Settings: sulfentrazone 450 g ai/ha (1×), 7 DAT, number of plants of 24 per genotype, grades
# In short: as §1
Molecule,The grade of pesticide: grade 0,The grade of pesticide: grade 1,The grade of pesticide: grade 2,The grade of pesticide: grade 3
B1,24,0,0,0
B2,24,0,0,0
B3,24,0,0,0

# Same assay, conditions: sulfentrazone 900 g ai/ha (2×), 7 DAT, number of plants of 24 per genotype, grades
Molecule,The grade of pesticide: grade 0,The grade of pesticide: grade 1,The grade of pesticide: grade 2,The grade of pesticide: grade 3
B1,20,4,0,0
B2,23,1,0,0
B3,19,5,0,0

# System: Arabidopsis thaliana T1 plants
# Experiment: oxyfluorfen tolerance of transgenic Arabidopsis thaliana T1 plants (spray, grade of pesticide damage)
# Format: in vivo
# Settings: oxyfluorfen 180 g ai/ha (1×), 7 DAT, number of plants of 24 per genotype, grades
# In short: as §1
Molecule,The grade of pesticide damage/plant: grade 0 [plant],The grade of pesticide damage/plant: grade 1 [plant],The grade of pesticide damage/plant: grade 2 [plant],The grade of pesticide damage/plant: grade 3 [plant]
B1,24,0,0,0
B2,24,0,0,0
B3,24,0,0,0

# Same assay, conditions: oxyfluorfen 720 g ai/ha (4×), 7 DAT, number of plants of 24 per genotype, grades
Molecule,The grade of pesticide damage/plant: grade 0 [plant],The grade of pesticide damage/plant: grade 1 [plant],The grade of pesticide damage/plant: grade 2 [plant],The grade of pesticide damage/plant: grade 3 [plant]
B1,20,4,0,0
B2,18,6,0,0
B3,21,3,0,0

# System: Arabidopsis thaliana T1 plants
# Experiment: saflufenacil tolerance of transgenic Arabidopsis thaliana T1 plants (spray, grade of pesticide damage)
# Format: in vivo
# Settings: saflufenacil 25 g ai/ha (1×), 7 DAT, number of plants of 24 per genotype, grades
# In short: as §1
Molecule,The grade of pesticide damage/plant: grade 0 [plant],The grade of pesticide damage/plant: grade 1 [plant],The grade of pesticide damage/plant: grade 2 [plant],The grade of pesticide damage/plant: grade 3 [plant]
B1,24,0,0,0
B2,24,0,0,0
B3,24,0,0,0

# Same assay, conditions: saflufenacil 100 g ai/ha (4×), 7 DAT, number of plants of 24 per genotype, grades
Molecule,The grade of pesticide damage/plant: grade 0 [plant],The grade of pesticide damage/plant: grade 1 [plant],The grade of pesticide damage/plant: grade 2 [plant],The grade of pesticide damage/plant: grade 3 [plant]
B1,0,24,0,0
B2,0,24,0,0
B3,0,24,0,0
